How the values were obtained:
[1] = target: T1, Recombinant human HER2 (human, UniProt P04626 23-652); experiment: SPR, Biacore T200, 25 C; variant captured on anti-human Fc, HER2 flowed;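 also: HER2 extracellular domain analyte run as duplicate dilutions over amine-coupled anti-Fc on a CM5 chip, rates from global sensorgram fitting with a 1:1 Langmuir model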
T1 construct: extracellular domain; Analyte of the SPR assays; also called HER2 ECD; ECD2 of HER2

[2] = target: T1, Recombinant human HER2; experiment: calculated from the SPR Ka ratio to WT v10013;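 also: SPR at 25 °C with constructs captured on an anti-human Fc chip and HER2 extracellular domain as analyte, kinetics fitted to a 1:1 Langmuir model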
[3] = target: T1, Recombinant human HER2; experiment: SPR, 25 C; Ka ratio to WT v10013;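 also: constructs captured via anti-human Fc on CM5 chip, HER2 ECD as analyte in duplicate dilutions, sensorgrams globally fit to 1:1 Langmuir model on Biacore T200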
Experimental: The affinity towards HER2 ECD of the samples was measured by SPR on a Biacore T200 as follows. Between 2000 and 4000 RU of anti-human Fc injected at concentration between 5 and 10 μg/ml was immobilized on a CM5 chip using standard amine coupling. Antigen-binding constructs were captured on the anti-human Fc (injected at concentration at 0.51 microg/mL in PBST, 1 min at 10 microl/min) at response levels ranging from 120-270 RU. […] HER2 dilutions were analyzed in duplicates. Sensograms were fit globally to a 1: 1 Langmuir binding model, using the software provided with the Biacore T200. All experiments were conducted at 25° C.

Binder	Kd [1]	koff [1]	kon [1]	ΔΔG [2]	Ka, mut/Ka, WT [3]
Variant 14034 (antibody, human IgG1, kappa, OA (one-armed) format; clones 3057, 8781, 4372; also called v14034) heavy: EVQLVESGGGLVQPGGSLRLSCAASGFTFTDYTMDWVRQAPGKGLEWVADVNPNSGGSIYNQRFKGRFTLSVDRSKNTLYLQMNSLRAEDTAVYYCARNLGPSFYFDYWGQGTLVTVSSASTKGPSVFPLAPSSKSTSGGTAALGCLVKDYFPEPVTVSWNSGALTSGVHTFPAVLQSSGLYSLSSVVTVPSSSLGTQTYICNVNHKPSNTKVDKKVEPKSCDKTHTCPPCPAPELLGGPSVFLFPPKPKDTLMISRTPEVTCVVVDVSHEDPEVKFNWYVDGVEVHNAKTKPREEQYNSTYRVVSVLTVLHQDWLNGKEYKCKVSNKALPAPIEKTISKAKGQPREPQVYVYPPSRDELTKNQVSLTCLVKGFYPSDIAVEWESNGQPENNYKTTPPVLDSDGSFALVSKLTVDKSRWQQGNVFSCSVMHEALHNHYTQKSLSLSPG light: not shown not shown	1.5 nM	8.5e-05 s⁻¹	59000 M⁻¹ s⁻¹	-1.4 kcal/mol	12 fold
Variant 14041 (antibody, human IgG1, kappa, OA (one-armed) format; clones 8785, 1811, 4372; also called v14041) heavy: EVQLVESGGGLVQPGGSLRLSCAASGFTFYDYTMDWVRQAPGKGLEWVADVNPNSGGSIYNQRFKGRFTLSVDRSKNTLYLQMNSLRAEDTAVYYCARNLGPWFYFDYWGQGTLVTVSSASTKGPSVFPLAPSSKSTSGGTAALGCLVKDYFPEPVTVSWNSGALTSGVHTFPAVLQSSGLYSLSSVVTVPSSSLGTQTYICNVNHKPSNTKVDKKVEPKSCDKTHTCPPCPAPELLGGPSVFLFPPKPKDTLMISRTPEVTCVVVDVSHEDPEVKFNWYVDGVEVHNAKTKPREEQYNSTYRVVSVLTVLHQDWLNGKEYKCKVSNKALPAPIEKTISKAKGQPREPQVYVYPPSRDELTKNQVSLTCLVKGFYPSDIAVEWESNGQPENNYKTTPPVLDSDGSFALVSKLTVDKSRWQQGNVFSCSVMHEALHNHYTQKSLSLSPG light: not shown not shown	1.1 nM	5.8e-05 s⁻¹	51000 M⁻¹ s⁻¹	-1.7 kcal/mol	17 fold
Variant 14037 (antibody, human IgG1, kappa, OA (one-armed) format; clones 7843, 7919, 4372; also called v14037) heavy: EVQLVESGGGLVQPGGSLRLSCAASGFTFTDYTMDWVRQAPGKGLEWVADVNPNSGGSIYNQRFKGRFTLSVDRSENTLYLQMNSLRAEDTAVYYCARNLGPSFYFDYWGQGTLVTVSSASTKGPSVFPLAPSSKSTSGGTAALGCLVKDYFPEPVTVSWNSGALTSGVHTFPAVLQSSGLYSLSSVVTVPSSSLGTQTYICNVNHKPSNTKVDKKVEPKSCDKTHTCPPCPAPELLGGPSVFLFPPKPKDTLMISRTPEVTCVVVDVSHEDPEVKFNWYVDGVEVHNAKTKPREEQYNSTYRVVSVLTVLHQDWLNGKEYKCKVSNKALPAPIEKTISKAKGQPREPQVYVYPPSRDELTKNQVSLTCLVKGFYPSDIAVEWESNGQPENNYKTTPPVLDSDGSFALVSKLTVDKSRWQQGNVFSCSVMHEALHNHYTQKSLSLSPG light: not shown not shown	1.4 nM	8.3e-05 s⁻¹	59000 M⁻¹ s⁻¹	-1.5 kcal/mol	12 fold
Variant 14038 (antibody, human IgG1, kappa, OA (one-armed) format; clones 8782, 1811, 4372; also called v14038) heavy: EVQLVESGGGLVQPGGSLRLSCAASGFTFQDYTMDWVRQAPGKGLEWVADVNPNSGGSIYNQRFKGRFTLSVDRSENTLYLQMNSLRAEDTAVYYCARNLGPSFYFDYWGQGTLVTVSSASTKGPSVFPLAPSSKSTSGGTAALGCLVKDYFPEPVTVSWNSGALTSGVHTFPAVLQSSGLYSLSSVVTVPSSSLGTQTYICNVNHKPSNTKVDKKVEPKSCDKTHTCPPCPAPELLGGPSVFLFPPKPKDTLMISRTPEVTCVVVDVSHEDPEVKFNWYVDGVEVHNAKTKPREEQYNSTYRVVSVLTVLHQDWLNGKEYKCKVSNKALPAPIEKTISKAKGQPREPQVYVYPPSRDELTKNQVSLTCLVKGFYPSDIAVEWESNGQPENNYKTTPPVLDSDGSFALVSKLTVDKSRWQQGNVFSCSVMHEALHNHYTQKSLSLSPG light: not shown not shown	1.4 nM	6.2e-05 s⁻¹	43000 M⁻¹ s⁻¹	-1.5 kcal/mol	12 fold
Variant 14042 (antibody, human IgG1, kappa, OA (one-armed) format; clones 8788, 1811, 4372; also called v14042) heavy: EVQLVESGGGLVQPGGSLRLSCAASGFTFQDYTMDWVRQAPGKGLEWVADVNPNSGYSIYNQRFKGRFTLSVDRSKNTLYLQMNSLRAEDTAVYYCARNLGPSFYFDYWGQGTLVTVSSASTKGPSVFPLAPSSKSTSGGTAALGCLVKDYFPEPVTVSWNSGALTSGVHTFPAVLQSSGLYSLSSVVTVPSSSLGTQTYICNVNHKPSNTKVDKKVEPKSCDKTHTCPPCPAPELLGGPSVFLFPPKPKDTLMISRTPEVTCVVVDVSHEDPEVKFNWYVDGVEVHNAKTKPREEQYNSTYRVVSVLTVLHQDWLNGKEYKCKVSNKALPAPIEKTISKAKGQPREPQVYVYPPSRDELTKNQVSLTCLVKGFYPSDIAVEWESNGQPENNYKTTPPVLDSDGSFALVSKLTVDKSRWQQGNVFSCSVMHEALHNHYTQKSLSLSPG light: not shown not shown	1.2 nM	5.9e-05 s⁻¹	47000 M⁻¹ s⁻¹	-1.6 kcal/mol	15 fold
Variant 14046 (antibody, human IgG1, kappa, OA (one-armed) format; clones 7844, 8781, 4372; also called v14046) heavy: EVQLVESGGGLVQPGGSLRLSCAASGFTFTDYTMDWVRQAPGKGLEWVADVNPNSGGSIYNQRFKGRFTLSVDRSWNTLYLQMNSLRAEDTAVYYCARNLGPSFYFDYWGQGTLVTVSSASTKGPSVFPLAPSSKSTSGGTAALGCLVKDYFPEPVTVSWNSGALTSGVHTFPAVLQSSGLYSLSSVVTVPSSSLGTQTYICNVNHKPSNTKVDKKVEPKSCDKTHTCPPCPAPELLGGPSVFLFPPKPKDTLMISRTPEVTCVVVDVSHEDPEVKFNWYVDGVEVHNAKTKPREEQYNSTYRVVSVLTVLHQDWLNGKEYKCKVSNKALPAPIEKTISKAKGQPREPQVYVYPPSRDELTKNQVSLTCLVKGFYPSDIAVEWESNGQPENNYKTTPPVLDSDGSFALVSKLTVDKSRWQQGNVFSCSVMHEALHNHYTQKSLSLSPG light: not shown not shown	~0.091 nM	~9.1e-06 s⁻¹	100000 M⁻¹ s⁻¹	-3.2 kcal/mol	~212 fold
Variant 14040 (antibody, human IgG1, kappa, OA (one-armed) format; clones 8783, 1811, 4372; also called v14040) heavy: EVQLVESGGGLVQPGGSLRLSCAASGFTFTDYTMDWVRQAPGKGLEWVADVNPNSGGSIYNQRFKGRFTLSVDRSENTLYLQMNSLRAEDTAVYYCARNLGPWFYFDYWGQGTLVTVSSASTKGPSVFPLAPSSKSTSGGTAALGCLVKDYFPEPVTVSWNSGALTSGVHTFPAVLQSSGLYSLSSVVTVPSSSLGTQTYICNVNHKPSNTKVDKKVEPKSCDKTHTCPPCPAPELLGGPSVFLFPPKPKDTLMISRTPEVTCVVVDVSHEDPEVKFNWYVDGVEVHNAKTKPREEQYNSTYRVVSVLTVLHQDWLNGKEYKCKVSNKALPAPIEKTISKAKGQPREPQVYVYPPSRDELTKNQVSLTCLVKGFYPSDIAVEWESNGQPENNYKTTPPVLDSDGSFALVSKLTVDKSRWQQGNVFSCSVMHEALHNHYTQKSLSLSPG light: not shown not shown	1.2 nM	7.9e-05 s⁻¹	64000 M⁻¹ s⁻¹	-1.6 kcal/mol	15 fold
Variant 14039 (antibody, human IgG1, kappa, OA (one-armed) format; clones 7813, 7919, 4372; also called v14039) heavy: EVQLVESGGGLVQPGGSLRLSCAASGFTFYDYTMDWVRQAPGKGLEWVADVNPNSGGSIYNQRFKGRFTLSVDRSKNTLYLQMNSLRAEDTAVYYCARNLGPSFYFDYWGQGTLVTVSSASTKGPSVFPLAPSSKSTSGGTAALGCLVKDYFPEPVTVSWNSGALTSGVHTFPAVLQSSGLYSLSSVVTVPSSSLGTQTYICNVNHKPSNTKVDKKVEPKSCDKTHTCPPCPAPELLGGPSVFLFPPKPKDTLMISRTPEVTCVVVDVSHEDPEVKFNWYVDGVEVHNAKTKPREEQYNSTYRVVSVLTVLHQDWLNGKEYKCKVSNKALPAPIEKTISKAKGQPREPQVYVYPPSRDELTKNQVSLTCLVKGFYPSDIAVEWESNGQPENNYKTTPPVLDSDGSFALVSKLTVDKSRWQQGNVFSCSVMHEALHNHYTQKSLSLSPG light: not shown not shown	1.1 nM	5.5e-05 s⁻¹	50000 M⁻¹ s⁻¹	-1.7 kcal/mol	18 fold
Variant 14035 (antibody, human IgG1, kappa, OA (one-armed) format; clones 7815, 7917, 4372; also called v14035) heavy: EVQLVESGGGLVQPGGSLRLSCAASGFTFQDYTMDWVRQAPGKGLEWVADVNPNSGGSIYNQRFKGRFTLSVDRSKNTLYLQMNSLRAEDTAVYYCARNLGPSFYFDYWGQGTLVTVSSASTKGPSVFPLAPSSKSTSGGTAALGCLVKDYFPEPVTVSWNSGALTSGVHTFPAVLQSSGLYSLSSVVTVPSSSLGTQTYICNVNHKPSNTKVDKKVEPKSCDKTHTCPPCPAPELLGGPSVFLFPPKPKDTLMISRTPEVTCVVVDVSHEDPEVKFNWYVDGVEVHNAKTKPREEQYNSTYRVVSVLTVLHQDWLNGKEYKCKVSNKALPAPIEKTISKAKGQPREPQVYVYPPSRDELTKNQVSLTCLVKGFYPSDIAVEWESNGQPENNYKTTPPVLDSDGSFALVSKLTVDKSRWQQGNVFSCSVMHEALHNHYTQKSLSLSPG light: not shown not shown	0.91 nM	4e-05 s⁻¹	44000 M⁻¹ s⁻¹	-1.7 kcal/mol	18 fold
Variant 14045 (antibody, human IgG1, kappa, OA (one-armed) format; clones 8784, 1811, 4372; also called v14045) heavy: EVQLVESGGGLVQPGGSLRLSCAASGFTFQDYTMDWVRQAPGKGLEWVADVNPNSGGSIYNQRFKGRFTLSVDRSWNTLYLQMNSLRAEDTAVYYCARNLGPWFYFDYWGQGTLVTVSSASTKGPSVFPLAPSSKSTSGGTAALGCLVKDYFPEPVTVSWNSGALTSGVHTFPAVLQSSGLYSLSSVVTVPSSSLGTQTYICNVNHKPSNTKVDKKVEPKSCDKTHTCPPCPAPELLGGPSVFLFPPKPKDTLMISRTPEVTCVVVDVSHEDPEVKFNWYVDGVEVHNAKTKPREEQYNSTYRVVSVLTVLHQDWLNGKEYKCKVSNKALPAPIEKTISKAKGQPREPQVYVYPPSRDELTKNQVSLTCLVKGFYPSDIAVEWESNGQPENNYKTTPPVLDSDGSFALVSKLTVDKSRWQQGNVFSCSVMHEALHNHYTQKSLSLSPG light: not shown not shown	~0.084 nM	~5.9e-06 s⁻¹	71000 M⁻¹ s⁻¹	-3.2 kcal/mol	~229 fold
Variant 14044 (antibody, human IgG1, kappa, OA (one-armed) format; clones 8774, 7919, 4372; also called v14044) heavy: EVQLVESGGGLVQPGGSLRLSCAASGFTFTDYTMDWVRQAPGKGLEWVADVNPNSGGSIYNQRFKGRFTLSVDRSWNTLYLQMNSLRAEDTAVYYCARNLGPWFYFDYWGQGTLVTVSSASTKGPSVFPLAPSSKSTSGGTAALGCLVKDYFPEPVTVSWNSGALTSGVHTFPAVLQSSGLYSLSSVVTVPSSSLGTQTYICNVNHKPSNTKVDKKVEPKSCDKTHTCPPCPAPELLGGPSVFLFPPKPKDTLMISRTPEVTCVVVDVSHEDPEVKFNWYVDGVEVHNAKTKPREEQYNSTYRVVSVLTVLHQDWLNGKEYKCKVSNKALPAPIEKTISKAKGQPREPQVYVYPPSRDELTKNQVSLTCLVKGFYPSDIAVEWESNGQPENNYKTTPPVLDSDGSFALVSKLTVDKSRWQQGNVFSCSVMHEALHNHYTQKSLSLSPG light: not shown not shown	0.33 nM	3.2e-05 s⁻¹	96000 M⁻¹ s⁻¹	-2.4 kcal/mol	57 fold

Reference: US20180273635A1 (Zymeworks, published 2018)
